Results as given in patent publication US20230312689A1.

Molecular target: two kinds of spike viruses (Wuhan type S, European type SD614G)
Assay: cell-based or functional assay

B1: CTMA9-105 (antibody, V domains shown)
VH: EVQLVESGGGLIQPGGSLRLSCAASGITVSSNYMSWVRQAPGKGLEWVSLIYSGGSTYYADSVKGRFTISRDNSKNTLYLQMNSLRAEDTAVYYCARDLEEAGGMDVWGQGTTVTVSS
VL: DIVMTQSPGTLSLSPGERATLSCRASQSVPSIYLAWYQQRPGQAPRLLIYGASSRATGIPDRFSGSGSGTDFTLTISRLEPEDFAVYYCQQYGSSPGTFGQGTKVEIK
B1 gave an IC50, pseudovirus neutralization test using the purified antibody of 2 to 6 ng/mL.
